Two molecules from article PMC10724393, “FOXA2 Suppression by TRIM36 Exerts Anti‐Tumor Role in Colorectal Cancer Via Inducing NRF2/GPX4‐Regulated Ferroptosis” (Advanced Science, 2023) can be followed below.

Assay [1] has as its target T1, His-tagged TRIM36 (human, UniProt Q9NQ86 1-728).
T1 construct: TRIM36, human; construct and limits of the His-tagged protein are not described; also called His-TRIM36; source: purified
T1 sequence (looked up): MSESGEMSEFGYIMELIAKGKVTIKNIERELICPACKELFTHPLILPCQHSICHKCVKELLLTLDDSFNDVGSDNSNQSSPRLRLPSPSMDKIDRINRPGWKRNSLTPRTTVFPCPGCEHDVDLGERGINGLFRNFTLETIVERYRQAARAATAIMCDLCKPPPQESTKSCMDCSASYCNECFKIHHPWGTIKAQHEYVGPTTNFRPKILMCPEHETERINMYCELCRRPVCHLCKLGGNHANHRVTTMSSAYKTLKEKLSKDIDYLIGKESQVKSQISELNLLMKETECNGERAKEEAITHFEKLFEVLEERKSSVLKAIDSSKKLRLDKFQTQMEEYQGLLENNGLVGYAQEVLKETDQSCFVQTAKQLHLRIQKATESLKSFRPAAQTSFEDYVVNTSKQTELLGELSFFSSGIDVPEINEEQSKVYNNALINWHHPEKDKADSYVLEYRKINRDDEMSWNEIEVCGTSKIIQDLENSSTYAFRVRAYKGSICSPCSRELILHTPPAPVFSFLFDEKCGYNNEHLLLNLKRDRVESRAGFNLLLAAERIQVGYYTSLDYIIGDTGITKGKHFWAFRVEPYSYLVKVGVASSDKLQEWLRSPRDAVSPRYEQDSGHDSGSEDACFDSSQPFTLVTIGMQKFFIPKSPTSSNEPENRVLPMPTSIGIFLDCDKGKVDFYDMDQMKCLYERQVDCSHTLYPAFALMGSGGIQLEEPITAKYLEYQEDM
Nature of the assay: pull-down; GST fusion on glutathione-Sepharose 4B beads, incubated with purified His-tagged partner for 4 h; eluate blotted with anti-His; GST alone as control. To be noted: both partners purified.

For assay [2], the target named is T2, GST-TRIM36 (human, UniProt Q9NQ86 1-728).
T2 construct: TRIM36, human cDNA, full length, cloned into pGEX-4T-1-GST; also called purified GST-TRIM36
T2 sequence (looked up): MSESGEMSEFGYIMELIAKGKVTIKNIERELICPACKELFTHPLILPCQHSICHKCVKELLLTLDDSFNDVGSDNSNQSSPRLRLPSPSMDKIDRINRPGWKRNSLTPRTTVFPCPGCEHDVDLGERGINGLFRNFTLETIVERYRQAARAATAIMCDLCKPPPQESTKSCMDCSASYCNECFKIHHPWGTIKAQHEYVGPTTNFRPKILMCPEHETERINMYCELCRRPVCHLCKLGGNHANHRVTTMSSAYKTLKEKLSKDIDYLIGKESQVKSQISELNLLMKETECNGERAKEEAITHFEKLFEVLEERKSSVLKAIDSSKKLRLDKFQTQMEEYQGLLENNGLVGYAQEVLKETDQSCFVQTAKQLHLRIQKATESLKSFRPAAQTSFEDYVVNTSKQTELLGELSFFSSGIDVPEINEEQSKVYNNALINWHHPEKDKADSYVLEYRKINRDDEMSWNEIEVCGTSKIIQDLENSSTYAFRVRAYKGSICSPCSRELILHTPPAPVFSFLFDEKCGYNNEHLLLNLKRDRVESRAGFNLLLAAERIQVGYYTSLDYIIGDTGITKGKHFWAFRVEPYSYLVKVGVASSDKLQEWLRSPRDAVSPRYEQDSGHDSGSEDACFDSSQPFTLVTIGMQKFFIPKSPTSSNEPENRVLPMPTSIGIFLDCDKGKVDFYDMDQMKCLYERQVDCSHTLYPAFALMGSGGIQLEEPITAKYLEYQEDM
The description is as above. The note with it: both partners purified.

B1: GST-FOXA2 (natural protein, human, UniProt Q9Y261 1-457, looked up)
chain: MLGAVKMEGHEPSDWSSYYAEPEGYSSVSNMNAGLGMNGMNTYMSMSAAAMGSGSGNMSAGSMNMSSYVGAGMSPSLAGMSPGAGAMAGMGGSAGAAGVAGMGPHLSPSLSPLGGQAAGAMGGLAPYANMNSMSPMYGQAGLSRARDPKTYRRSYTHAKPPYSYISLITMAIQQSPNKMLTLSEIYQWIMDLFPFYRQNQQRWQNSIRHSLSFNDCFLKVPRSPDKPGKGSFWTLHPDSGNMFENGCYLRRQKRFKCEKQLALKEAAGAAGSGKKAAAGAQASQAQLGEAAGPASETPAGTESPHSSASPCQEHKRGGLGELKGTPAAALSPPEPAPSPGQQQQAAAHLLGPPHHPGLPPEAHLKPEHHYAFNHPFSINNLMSSEQQHHHSHHHHQPHKMDLKAYEQVMHYPGYGSPMPGSLAMGPVTNKTGLDASPLAADTSYYQGVYSRPIMNSS
notes: FOXA2, human cDNA, full length, cloned into pGEX-4T-1-GST; also called purified GST-FOXA2
For the molecule B1, in assay [1], the binding result is “binds”.

B2: His-tagged FOXA2 (natural protein, human, UniProt Q9Y261 1-457, looked up)
chain: MLGAVKMEGHEPSDWSSYYAEPEGYSSVSNMNAGLGMNGMNTYMSMSAAAMGSGSGNMSAGSMNMSSYVGAGMSPSLAGMSPGAGAMAGMGGSAGAAGVAGMGPHLSPSLSPLGGQAAGAMGGLAPYANMNSMSPMYGQAGLSRARDPKTYRRSYTHAKPPYSYISLITMAIQQSPNKMLTLSEIYQWIMDLFPFYRQNQQRWQNSIRHSLSFNDCFLKVPRSPDKPGKGSFWTLHPDSGNMFENGCYLRRQKRFKCEKQLALKEAAGAAGSGKKAAAGAQASQAQLGEAAGPASETPAGTESPHSSASPCQEHKRGGLGELKGTPAAALSPPEPAPSPGQQQQAAAHLLGPPHHPGLPPEAHLKPEHHYAFNHPFSINNLMSSEQQHHHSHHHHQPHKMDLKAYEQVMHYPGYGSPMPGSLAMGPVTNKTGLDASPLAADTSYYQGVYSRPIMNSS
notes: FOXA2, human; construct and limits of the His-tagged protein are not described; also called His-FOXA2; source: purified
Regarding B2, the binding result in assay [2] is “binds”.
